{"source": "a protein production outcome set (Wang et al. 2014)", "data": [{"experiment": "label from the status in PepcDB records", "values": [{"sequence": "MYIQPLNPTGNVGLTILASLTPIIALLILLAGLRITAWLATLIGSIITILVATFVWGTPIIQVSYAWLIGALVGTWAISWIVFWGLTIYNTLVLTGKFDAFRDWIVRNSTNDARVQAIVLAWSLGALFEGLVGFGYPWAFIAPLLIYLGFDDLKALQVSALANNAPVSFGALGTPIIILASVTGLPLLFISSSVAKVVAILALLPPWILLYLVDKWRGIREAWPIAILGSLSYILGQYPVASFIGPYLPDITGSLISFVILLLFLRVWRPKRVLSLRSVQPNGGESKKYSTKDVIEALSAFIVLIIVVTLWTGPWSPLTKFSLVTLSQTAYSSLLHKNVGVSFAFNPFVAGTSILVSWIIISLVLRASPRIMGEAIKRSFHQYWGGILTGIFVVGLAYVFNFSGMAYSLAWKTSDLGIAFIIVSPLFGWIGCALSGSNTSTNALFGAFQVTTARLTGLPVGLPPALNSVGAELAKPVAPQTASAGVSTTKYVRKEGIVIRKNLPWAIGILIYLILIGVLYAFLAPSLFVH", "protein production": "failed"}, {"sequence": "MYIRGVGDIIYFLQQLHPLEQALLAGIFTWGMTALGAASVFFTREVSRKVLDSMLGFTAGVMIAASYWSLLAPAIEMSEGRSIPAWLPAVLGFLLGGLFLRGIDKILPHLQFGSATEAAEGLKTSWRRNTLLVLAVTLHNIPEGLAVGVAFGAAASGYMYSLPAAIALTTGIGIQNFPEGLVVSVPLRREGMSCFKSFNYGQASAIVEPIASVIGVAAVMLVRPILPYALAFAAGAMIFVVVEEIIPESQHGGNAPLATIGTMIGFSVMMVLDVAFG", "protein production": "failed"}, {"sequence": "MYKGYKIGVAVPAYNEEKLIGETLKGIPPFVDRIYVVDDASKDNTSKVVEEMMRHDKRIVLIRHAKNKGVGGAIVSGWKKGLEEGMDILAVMAGDNQMDPRDLPALLDPIVEGKVDFTKGNRFLLSYDLKMSYWRRFGTFLLTILTKIASGYWHINDPQNGYVAIKADALRKIDLDKLDSGYFFENDLLIKASVANLRVVNVPVKIRYKIGEKSKIKYSKFIARTSWLLLRSFLWRIWVEYVKRRKFLGFLYLLGFTLIVTSFLIFLIYPTRLEIPLIVLLAGAAIFLGSCIKEKNLKQYLK", "protein production": "failed"}, {"sequence": "MYKIDEVTKQVGLTKRTLRYYEEIGLIHPPERSEGNIRLYTDEDIARIKRIVEAKEVLGITLQEMQHFLSLKERMEQRRNSENPRDREVIQEIKEMLEKQVQTLDEKMEQMQRVKGELEDSLHRAVTFLENTKGE", "protein production": "failed"}, {"sequence": "MYKILIVEDDPNISSLLQSHIQKYGYEAVVAENFDDIMESFNAVKPHLVLLDVNLPKFDGFYWCRQIRHESTCPIIFISARAGEMEQIMAIESGADDYITKPFHYDVVMAKIKGQLRRIYGDYAPNISERIVEVEGLKLFPERPEIHFGSEQVLLTKKEAILAEMLLSKFPRTASREDLLAALWDDESFVEENTLNVNITRLRKKFNELGIENAIETVRGLGYRFNATWSE", "protein production": "failed"}, {"sequence": "MYKLISPHLSGHAMWKEALEEFGSGPIHGSGYFENYLPIDYSEAGFHHYLKERTDAADPSVPPPEGFVHCSYFWIVDDDDVLVGFLALRHELNQHLLEVAGHIGYGVRPSARRKGAATAALKLGVHEAQALGIDKVLLCVAGDNEASRNVIEKCGGVYESTIRGMRRYWIATDS", "protein production": "failed"}, {"sequence": "MYLAEALAQRVEAQRRYSELNQLLLDVAKVQEGDQPAENPHEILTELEELTTRINDLVRRINRTNSVTEFSEGMTLADALSVRDALLKKRTLYSDLADQLTSRQDRYSRSEIKYVATMDAREIRKKADLAAKEYRQLDVDIQRLNWQTELQ", "protein production": "failed"}, {"sequence": "MYLISELAVKAGLSRTTLLYYEKLGLIRGQRLDNGYRYYNESDLQQLFLIQQLQSAGLSLKECEECLQAKLDRTLLERRLSQLDDEIEKKVRARELLLALLGERPQRELHHSLSKHAPNAYLSWLNTQGYSEKEALRLKWLSKDMNEHDIYMQDFMTVFASLQHWGPGSEQDSLKAISLMSMQNMQHILDIGCETGLSTLLLAENSSAHITAVDNEPIAIEQLEKQRQHSPWKEQISPVLGSMTALPFAAKSFDAIWAEGCVYIMGMENALKQWKPFLADNAILMVSDLVWLTENPKPEAQEFWQSEYPDIQSIPSRIKLFKKLGYEVMEHFSLGIDAWQNYWLPLQNRVQELKLRLTNSQALSDIEKEIAIYERSAAKDFTYQYFVLKLNH", "protein production": "failed"}, {"sequence": "MYLKHFGLGQAPFSLTPNTGFFFGLSPHVEALQVLQTALQTGEGFIKVTGEVGTGKTLICRKLINELPQGFHCAYLPNPYLTPAELRWAVANELGLKYTSEIDQQQLTGLIQQQLLALSTHGHAIVLVLDEAQALPDESLEALRLFTNLETESRKLLQVVLFGQPELDERLKRQAFRQLRQRITFSYNLRPLTWDETDAYIRYRLAVAGHAGQALFSPKITRKIAQASRGIPRLINILAHKALMLSFGEGATQVRMSHLKGAICDTEDASPTRVQKWSTYFAIAFMVFAVAMLALLLSGTNFLQWWGDGA", "protein production": "failed"}, {"sequence": "MYLRPDEVARVLEKVGFTVDVVTQKAYGYRRGENYVYVNREARMGRTALVIHPTLKERSSTLAEPASDIKTCDHYQQFPLYLAGERHEHYGIPHGFSSRVALERYLNGLFGEAS", "protein production": "failed"}, {"sequence": "MYLRSYMGWRFWALFFCLCSPSSVSAERLASSYLKVTEEAASSRQLIRYCVDPDWLPYEAIREGEHVGISSDYIRYIESHSNFKFSLVPTTSWSETLNFLQTGRCELTPMLNKTATREQFLHFSHVYFHSPNVLVSLKEQPFLQGFENIGSRTLAVPKGYRLAEYIQHYYPKVKIIEVGSEPAGLEAVLDKRADLFVGSMFSVNAYIQQTGFNHLKIAGWGGPEDELRMGVSLGHEALLPILNQVLDDVDELERIRIYQKWNNITVIDETNYLLIYQVIVGTLLVVFLLATRTFFISRYNRRLTDKNEQLEALRLRLEHTNAELEFLSTHDPLTKLYNRHYFNRQFVHEHRSEISSEGAICLVMLDIDFFKEINDTLGHAVGDNILMELSGVLQHCVRETDVVARWGGEEFVILCHQTSIDLVKTLCQRIAAAIKDYRFSGNVQLTCSFGIAKLVNNEPMQSCFERADKALYQAKALGRNQICVDEFNT", "protein production": "failed"}, {"sequence": "MYNPTAIAATNYQILPRRGKHKIFIGMAPGVGKTYRMLEEGHALKQDGVDVAIGLLEAHGREETTLKAEGLELIPRKQVYCRNVLLQEMDTEEILRRSPQLVLIDELAHTNIPGSKQEKRYQDVEKILNAGIDVYSTVNIQHLESLNDLVYRISGVVVRERIPDRIIDDADEIVVVDVTPETLQERLQEGKIYAPEKIDQALQNFFRRSNLIALRELALREIADNIEEESISETKNLHYNIRERVLVCISTYPNSIQLLRRGARIANHMNGQLFVLFVAPAGKFLSKSEALHIETCKRLCQEFTGEFLRIESPNIVTTIVKIATQERITQIVLGETRRSRFQLLFKGSIVQQLMRALPQVDIHIIANN", "protein production": "failed"}, {"sequence": "MYSLFQEGRKMKNTAFLITKNHYPKDYRLKKSPDSDSAMGVAKRILAEVMIFRRVPETISLCGTGCQKCASPHLPKIISAVNKNEPVTFILPAFPGKSPNPEKVLGHLPDHAERLSLNFLGTLCQRIKNFYTPGIKIILCSDGRVFSDVVGMNESDVTAYQLELDRLIKEMSLADLSTFNLDYFYKDLHFVQMREELMKSYGQSLDFLKQKIRNGAKPSASPDEQEANRMYSGITRFLFEDAMHAGQTKSRTAIQKESRFKAYEVIRRSNAWSALIAERFPKAVRLSIHPQTCGSKKLGIRLIGNESWMTPWHGVAVESNKGYVLLRRSEAEALGAKLICSSDGRHSHYQLMAEVSYELLEHHHHHH", "protein production": "not failed"}, {"sequence": "MYSRLPTTYELIEALQASPQAGPAAESRLATVLWAGFVLALVPMLVAGGALVWWHRVLAQVPPAWLPQVFHVLLAVCGVFYVGAWVIRLLDRRAALQHPLRWLTRRLDTQSEVENALLLRLGRIPALQLRARQRRVVLQARLWDASARTMALVLAIGPAAVILADGVAVMAPGGVPALVAIYGAVLVAGCALALFAQLQCSAPLRRLAHVLGEAAEINEAVNRQRQP", "protein production": "failed"}, {"sequence": "MYTITDIAPTDAEFIALIAALDAWQETLYPAESNHLLDLSQLPPQTVIALAIRSPQGEAVGCGAIVLSEEGFGEMKRVYIDPQHRGQQLGEKLLAALEAKARQRDCHTLRLETGIHQHAAIALYTRNGYQTRCAFAPYQPDPLSVFMEKPLFADLRSAAL", "protein production": "not failed"}, {"sequence": "MYTKGSVSTRIAKYLFIILIVAGVISSLSLAIMSSNKYDAEAINISGSLRMQSYRLLYEMQEQPESVETNLRRYHISLHSSALLEVQNQFFTPNVLKHSYQNILQRWTNMEKYARQQDVKNYSKQLTDYVADVDYFVFELQRFSEQKWILGVSVLGFAMLLILLMVSYVIWYTNREVVKPLHLMTKASMQVQMRQFNHIPLDTRKQNELGTLARVFTQMSTELGQLYSRLEEAVNEKTQKLRQTNRTLSTLYQSAQLLNTNTINDKILNQVLNYIFISDHLNFVKVEVMGAEHWDITLGKQDANNELQIETLSVDNEELGVLSWQAGLPCPDPRIMQNLAQMLARALYFHKNLRQKEQLLLMEERSIIARELHDSLAQVLSFLQIQLTLLKHNLKKEDEQSKEKSLAIIANFEQALSGGYAQLRELLATFRLTIQEANLQLALKQVIDSLRSQTTMQMNVNCQLPSQSLNPQQLVHVLQIVREATTNAIKHSQGTVIEISARINAEGEYEILVEDDGVGIPNLEEPEGHYGLNIMAERCRQLNAQLHIHRREQGGTQVKITLPHTLY", "protein production": "failed"}, {"sequence": "MYVTKRLSEYKRNPSELTLLPTEGPNSGVLVIQDEESRPTLKCCFVNSFDWELNGLPFPQNTRVIVKRQIGTALYLDPVAFIPVLHQPPSSNLYYVIRGSGKHTGEACVSAKEGDRASCCFCFTYIPEAVPRPLDPFDINQQFEIHQGRSSTKKFFATSVASDGIPPQFLTRKGWSVIFSAPEVEDYGLIDDAKGIVDAKLRYELPDLDNSVVVGKWYVPFLFVKEGDAKDQMYKSMYYSMTLQQRFEEVFFCENVGNNKRFEVVVDVEVETEVVKLEGERIARETQGVNSDGVVWFNASGNEKIGLGSVVLERMKWEEERFGWLNKGYEQRSSIKRTERFEGGGPYWKSYRCYVLVETFELKRTDGSLVLTYEFKHVDKLKSKWD", "protein production": "failed"}, {"sequence": "NAGFECGTEYLNFDEQPATMLDANLLSVEEGYPVTIIERLRTADGEPVVYCLDKIAKKELTCTEYQMSNGSILSAIKEQSNHNICYADTEIEAVNYEPRISEVLNASPHEGLILLKITHYNELDEPILYSLNYMKNSLVQ", "protein production": "failed"}, {"sequence": "NAKAESVSSGEFNRLRLALLALEARHSKRLGVLILDEIDSNLSGEESEGVARVLQELSRSYQILAISHQPHMPSYAHRHFLVKKEAKGSTIERLDRE", "protein production": "failed"}, {"sequence": "NCKKIGEDSKIIIRQITDNDLELLMAWRSNPLIYKFFYIQKEPLKWEEHYSWWMSRENRVDWIILLRENNTIRKVGSVNVSQLNTDNPEIGILIGEFFLWGKHIGRHSVSLVLKWLKNIGYKKAHARILENNIRSIKLFESLGFKKTKKGRENEWIYEVNL", "protein production": "not failed"}, {"sequence": "NDPDADRFAVAARKADGEYQMLTGDQVGSLFGHYLLSQTDAHRQLVGNTIVSSSLLSKIAAAHGARYYQTLTGFKWLTNVAMQEQTEQHQFLFAYEEALGYTIGSTVWDKDGLSALVAFAQLAAELNAQGKTVWDQLEALYRQHGLHVN", "protein production": "failed"}, {"sequence": "NDVFSDEVKKIDDNTFIVEGRMPLDDFNKMFHVELPARGVDTVAGFVLTLTGTIPEEDDKVVVEYDTLRFTVEEMNDARLVSVRVEKDI", "protein production": "failed"}, {"sequence": "NELEKGNDGSGTVDPVNASTLVNVYSDKSGSEASLLVGDVLVKDSRTLTLNVPAACEKVYMKYNTVSGTEATKEFALSPVSRGVDQSTGFNFETNRLASVTLALPEDAVQPTNETDQGYLFYHNTGVVMFEDGWPIQLDSWYDEDFNDVVFEYDLKVTECHSQQMMETVGGKEELLLTLDVRAVGGIYPTVLGVVLDGLKSEYVDRITASLILKGGQGTMTDLAKEELSTKNIVKVENKNWNWSNDTRKEPRFAILTVDKAQAEGTVITLDGLTSLMDNNQDMFQVTQGKVREGLPMLRAEVRLIGKEGLTGAERDAQLAAFRELILDTNRQNFFIKVNGGKEIHMRGYAPTSAYKAEYEALVAGDTTLDANVYYSNTKGSTWGVKLPVGTRHAYERVPFREAYPDFTKWVDSKGVSNQKWYENFVDEKTIRYW", "protein production": "not failed"}]}]}
